# According to patent US20240093162:
# B1: Streptomyces mobaraensis transglutaminase-activating tripeptidyl aminopeptidase (SM-TAP), mature, catalytically active form (protein)
# chain: QADIKDRILKIPGMKFVEEKPYQGYRYLVMTYRQPVDHRNPGKGTFEQRFTLLHKDTDRPTVFFTSGYNVSTNPSRSEPTRIVDGNQVSMEYRFFTPSRPQPADWSKLDIWQAASDQHRLYQALKPVYGKNWLATGGSKGGMTATYFRRFYPNDMNGTVAYVAPNDVNDKEDSAYDKFFQNVGDKACRTQLNSVQREALVRRDEIVARYEKWAKENGKTFKVVGSADKAYENVVLDLVWSFWQYHLQSDCASVPATKASTDELYKFIDDISGFDGYTDQGLERFTPYYYQAGTQLGAPTVKNPHLKGVLRYPGINQPRSYVPRDIPMTFRPGAMADVDRWVREDSRNMLFVYGQNDPWSGEPFRLGKGAAARHDYRFYAPGGNHGSNIAQLVADERAKATAEVLKWAGVAPQAVQKDEKAAKPLAPFDAKLDRVKNDKQSALRP
# B2: Streptomyces mobaraensis transglutaminase-activating M4 metalloprotease (TAMEP), mature, catalytically active form (protein)
# chain: GTGNSQHSGQVQIGTTKSGSSYQMNDTTRGGHKTYNLNHGSSGTGTLFTDSDDVWGNGTNSDPATAGVDAHYGAQLTWDYYKNVHGRNGIRGDGVGAYSRVHYGNNYVNAFWDDSCFCMTYGDGNGIPLTSIDVAAHEMTHGVTSATANLTYSGESGGLNEATSDMMATAVEFWANNPADPGDYLIGEKININGDGTPLRYMDKPSKDGASKDAWYSGLGGIDVHYSSGPANHWFYLASEGSGPKDIGGVHYDSPTSDGLPVTGVGRDNAAKIWFKALTERMQSNTDYKGARDATLWAAGELFGVNSDTYNNVANAWAAINVGPRASSGVSVTSPGDQTSIVNQAVSLQIKATGSTSGALTYSATGLPAGLSINASTGLISGTPTTTGTSNVTVTVKDSAGKTGSTSFKWTVNTTGGGSVFENTTQVAIPDAGAAVTSPIVVTRSGNGPSALKVDVNITHTYRGDLTIDLVAPNGKTWRLKNSDAWDSAADVSETYTVDASSVSANGTWKLKVQDVYSGDSGTIDKWRLTF
# What was measured:
# [1] = biological target: T1, FRAP-Tgase variant (thermostable variant of Streptomyces mobaraensis Tgase having a FRAP tetrapeptide at the N-terminal end)
# T1 chain: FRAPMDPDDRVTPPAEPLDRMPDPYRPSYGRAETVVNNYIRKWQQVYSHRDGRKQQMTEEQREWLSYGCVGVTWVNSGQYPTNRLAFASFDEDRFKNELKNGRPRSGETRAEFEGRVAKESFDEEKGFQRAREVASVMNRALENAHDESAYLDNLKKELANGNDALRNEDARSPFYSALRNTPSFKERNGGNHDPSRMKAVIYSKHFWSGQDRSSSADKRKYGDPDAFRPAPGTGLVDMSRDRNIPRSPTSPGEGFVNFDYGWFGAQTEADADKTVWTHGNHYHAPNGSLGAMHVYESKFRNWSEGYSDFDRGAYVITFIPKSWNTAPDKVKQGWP
# [2] = biological target: T2, Pro-Tgase variant (thermostable variant of Streptomyces mobaraensis Tgase in zymogen form)
# T2 chain: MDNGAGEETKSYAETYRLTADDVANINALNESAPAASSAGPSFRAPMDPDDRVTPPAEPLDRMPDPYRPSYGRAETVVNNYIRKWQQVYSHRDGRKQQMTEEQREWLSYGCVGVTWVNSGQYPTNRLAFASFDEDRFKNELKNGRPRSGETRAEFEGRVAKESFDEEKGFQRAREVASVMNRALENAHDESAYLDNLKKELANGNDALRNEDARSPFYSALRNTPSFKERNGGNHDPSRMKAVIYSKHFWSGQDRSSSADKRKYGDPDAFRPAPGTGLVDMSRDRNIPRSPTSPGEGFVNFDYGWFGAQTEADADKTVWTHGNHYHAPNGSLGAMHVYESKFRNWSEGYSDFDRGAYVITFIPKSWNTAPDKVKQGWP
Protein,"proteolytic cleavage by soluble SM-TAP: UPLC-MS total area count of FRAP tetrapeptide, and N-terminal sequencing [1]","proteolytic digestion by SM-TAP immobilized on porous solid supports: UPLC-MS, colorimetric Tgase activity assay, N-terminal sequencing [1]","proteolytic digestion by co-immobilized TAMEP and SM-TAP: UPLC-MS FRAP tetrapeptide area counts, N-terminal sequencing [1]","proteolytic cleavage by soluble TAMEP: UPLC-MS total ion counts of the cleaved pro-peptide, and N-terminal sequencing [2]","proteolytic digestion by TAMEP immobilized on porous solid supports: UPLC-MS, colorimetric Tgase activity assay, N-terminal sequencing [2]",proteolytic digestion by co-immobilized TAMEP and SM-TAP: UPLC-MS FRAP tetrapeptide area counts [2]
B1,"N-terminal peptide sequencing, performed as described in Example 2 above, confirmed that the FRAP tetrapeptide had been removed from the N-terminal end of the FRAP-Tgase variant (SEQ ID NO:5) resulting in a mature, catalytically active Tgase variant (SEQ ID NO:6)",Activity assay results showed that SM-TAP retained protease activity when immobilized on all the porous solid supports shown in Table 2,Activity assay results showed that co-immobilized TAMEP and SM-TAP retained protease activity on all the porous solid supports set forth in Table 3 below,,,
B2,,,,"N-terminal peptide sequencing, performed as described in Example 2 above, confirmed that the FRAP amino acid sequence was present on the N-terminal end of the catalytically active, not mature FRAP-Tgase variant (SEQ ID NO:5)",Activity assay results showed that TAMEP retained protease activity when immobilized on all the porous solid supports shown in Table 2,Activity assay results showed that co-immobilized TAMEP and SM-TAP retained protease activity on all the porous solid supports set forth in Table 3 below
